According to the RNAGym collection of RNA variant scans (doi:10.1073/pnas.2313332121):

B1: TPR t1 (parent)
chain: GACCAAUCUGCCCUCAGAGCUCGAGAACAUCUUCGGAUGCAGAGGAGGCAGGCUUCGGUGGCGCGAUAGCGCCAACGUCCUCAACCUCCAAUGCAUCCCACCACAUGAUGAUGCCUGAAGAGCCUUGGUUUUUUG

Variants of: B1
Assay: polymerase ribozyme fitness, log enrichment relative to wild type (log ratio); higher = more active; in vitro selection for triplet polymerase activity
Outline: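 Libraries of mutants in each subunit of a heterodimeric triplet polymerase ribozyme were generated by PCR and transcribed. In triplicate, each went through one in vitro selection round: annealing with biotinylated primer, partner subunit and triplets; frozen incubation at −7 °C; gel excision of extended constructs; streptavidin-bead capture; RT-PCR. Fitness, taken from Illumina sequencing of input and output libraries, is the logarithm of a genotype's enrichment over wild-type enrichment, averaged across replicates with inverse-variance weights. The logarithm is base 2, and genotypes needed ≥10 input reads and ≥1 read per output to be kept.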

Point of comparison: G113A U130C, “polymerase ribozyme fitness (log ratio)” value -1.16. Against it:
- A119G G120A — higher, 1.35
- G42C G44A A50C C82U C85U — lower, -3.31
- C56U G110U A121U — within 0.2 log units, -1.11
- G61A U78C C86A A95C — lower, -1.85
- A41U C70A C89G C97A A105C G110U — lower, -5.8
- G71A U96G C123A — higher, -0.833
- G61A U92G G113U — lower, -4.27
- G36C G45C — lower, -2.04
- U21A — higher, -0.29
- C49U G61C G71A A95G G113U — lower, -7.48
- A18C C72U C73U U106A C124U — lower, -1.79
- C53A G61A C79A — higher, -0.911
- C40A G69C C85G G110U U112C — lower, -6.63
- C53U G60A A74C — higher, -0.941
- U9A A16U G63C U132A — higher, -0.608
- U55A G93A A121U — higher, 1.57
- A46C C56A A91U C97U — lower, -3.95
- A26U C82G — lower, -4.82
- A16G G42U C102U C124G — lower, -3.81
- A74U U87G — higher, 0.353
- C8G C97G — lower, -3.25
- G48A G52A — higher, -0.371
- G71U C101G — lower, -1.83
- C13A U14G G42A A84U — lower, -3.34
- G60A G120U — higher, 0.305
- U55A C62A U78C C79A U125G U133G — lower, -3.28
- C11G C62A — higher, -0.516
- C15A U133C — within 0.2 log units, -1.06
- A26U A46C A90G U106A G127C — lower, -2.32
- A5G C49U C73U — higher, -0.864
- C13G C56G C101U — lower, -2.67
- C20U C53A G71A A91G — lower, -5.09
- A41U G61A G127C — lower, -2.63
- U33C C64U — lower, -3.44
- C8A C124G — higher, 1.76
- C12U U38G C62U C76U C79A — lower, -1.79
- A29G G71A U92C U129C — lower, -4.75
- C40G C94A G110C C114U A118G — lower, -6.35
- C3A C12U — within 0.2 log units, -0.986
- G17A C56A — lower, -2.66
- U55A G69U C82G — higher, 0.171
- C40U G48A C53A G61A U132A — higher, -0.596
- G63U G122A — lower, -2.28
- A66C G113C G120U — lower, -5.98
- U9G G19U A46C C56U — lower, -3.13
- G19C G48U — lower, -2.5
- C22G G44U G48U G63U A91C A111U — lower, -6.95
- C13G C85G U112A G120C — within 0.2 log units, -1.17
- C11A A111U — lower, -4.43
- C12A G113A — lower, -2.14
- U7C G42U G69C — lower, -2.97
- A50U C64U C72A C79A C101A — lower, -5.1
- A50U A108G — lower, -3.01
- A46U C73G — lower, -2.11
- G52A A84U C101U U106G U132A — lower, -1.69
- G36C C64U G93A A100C — lower, -3.67
- A5G C64G G69A A83U — lower, -4.33
- C56A G60A — higher, -0.181
- C64U C86A U129A — lower, -1.99
- G39U A41U A43U G60U C82A C114A — lower, -4.19
- U9G A29G — within 0.2 log units, -1.35
- U32A C40U C101A — lower, -4.24
- C12G C28G A37U G110U — higher, 0.364
- U9C A41C C53G A68G C73U — lower, -5.47
- A37U G44A U87G A119U G128C — lower, -3.53
- C49A C115G — lower, -1.85
- G48C G128C — lower, -2.75
- A100C C102A — lower, -2.98
- A5C C28A G47U C53G G93U — lower, -7.47
- A24G A41G C88U U92A U112A U131C — lower, -3.58
- C4G C73U — lower, -1.69
- G47A G58A C62U C101U A108G — lower, -2.41
- A41G A66G — lower, -1.87
- C20U G69A — lower, -3.34
- C34U C102U C124A — higher, -0.815
- C11U G36A G63U — lower, -2.37
- G10U A43U G45C U78A — lower, -2.4
- C31U C49U C104U C115A — lower, -4.23
- C56A C124G — higher, 1.08
- C22U C73G C82A G120U U129A — lower, -5.92
- C8A G117C — lower, -2.07
- A5G G71A — higher, -0.188
- U32G C115A — lower, -5.41
- U67C G120U — lower, -4.12
- U106C G107U — lower, -4.63
- C8U C13A G25U G39A G47U G63C G117C G120C — lower, -7.2
- A46C C73G U87C — within 0.2 log units, -1.35
- A90U U106G — lower, -4.63
- U38A U96A — within 0.2 log units, -1.13
- C62G C101U — within 0.2 log units, -1.28
- C34A U109C — lower, -6.24
- C12A C22A A26C G120U — lower, -4.36
- A27U G122A — lower, -4.26
- C8G C11G C53U C62U U81G C102A — lower, -4.4
- C12A G17U A46G C80G A84G C115A — lower, -4.53
- A74U G93A C123A — higher, -0.279
- A6C G71C G113U — lower, -4.81
- C13A C49A G71A — lower, -1.76
- U14A G48U — lower, -2.9
- A75G U116A G117U C123U — lower, -2.78
- C4U C98U G113U — lower, -3.82
- A6C G47A C62U C86U U133G — higher, -0.219
- C85G U112G — within 0.2 log units, -1.15
- C34A A100G — lower, -5.07
- C12G A75U C94G — within 0.2 log units, -1.33
- C3U G10A U21C G61A C98U A119U — lower, -2.55
- A6U C12A G61U — higher, 0.0933
- C8A G58C U112C A121G — higher, 1.27
- A29U G48U C70G C123U — lower, -5.55
- C70U A74C C101U — higher, -0.934
- C20A A41G C53A G71U U78G — lower, -5.43
- C8U A26G C49U G57C U112A — within 0.2 log units, -0.963
- A6C U38A C53G — higher, -0.826
- G23U G52A C53G C115U — lower, -7.2
- U21A C49G U92C C104U — lower, -2.2
- C8A G42U G44A C114U — within 0.2 log units, -1.01
- A103U U130A — lower, -4.14
- U32A G44A C94A C99G G120U — lower, -7.6
- C80U U112A — higher, 0.959
- C13G G52C C86U A118G — lower, -5.59
- G51C C56A G93A — lower, -6.3
- A24G C40G G52U — lower, -4.31
- A29C C70U — lower, -2.29
- C20G G36A A43C U96G G117C — lower, -5.42
- C8U A26U C49G C79U G93A — lower, -4.36
- G71U C88U A100C U106G — lower, -5.6
- G107A U112C — lower, -3.85
- C12U A29U C56G U87G — lower, -2.63
- U112G U116G — lower, -2.14
- G10C C49U C94U — lower, -1.58
- G71A C82U C101A — higher, -0.823
- A6C C15U G63C — lower, -2.01
- U9A G42A C86U C104G G110U — lower, -7.22
- C11U C88G C114A U126A — lower, -5.99
- A41U U55A — within 0.2 log units, -1.08
- G45C G58C — higher, -0.221
- G52U A95G — higher, -0.694
- C13U G44U A50G C53U C56U G93U C124G — within 0.2 log units, -1.13
- G51U G122A — lower, -3.78
- C13A G42C A66C C99U C101U C114U G127U — lower, -6.24
- C56G G63A C101G G122U — lower, -5.14
- C49U G60C — higher, -0.958
- G36A G42U — lower, -2.99
- A5U G39U — within 0.2 log units, -1.13
- U112A A119G — higher, 1.9
- C70U C82A C123U G128A — lower, -1.76
- A46C C49G C73U — within 0.2 log units, -1.01
- G48A G61C — lower, -1.66
- C11G C72G C82G G117C — lower, -3.64
- G69A U78A G93A — lower, -4.02
- C80U G110A — within 0.2 log units, -1.21
- U7G G93C — higher, -0.742
- G60C G61C C73G C101G A111U G113C C123U U125G U126G — lower, -7.1
- U9A C11U G52A — higher, -0.401
- G48U G58A G122A — within 0.2 log units, -1.21
- U9G G36U G60C U78A C88A — lower, -1.68
- C13A A121C G128C — lower, -1.87
- U7G C53A A91U C101G — lower, -4.34
- C70A C73G G120C — lower, -5.26
- A26U C72G G120A — lower, -2.51
- U81G G110U G128A — lower, -6.9
- U54G U109G — lower, -4.29
- G51U G52U C56A U78A — lower, -3.39
- C12U C53U C56U — higher, -0.154
- A6G U7G A18C G48U C53A G63A C115A — lower, -1.55
- U7A U21G A75G — lower, -1.8
